# T1: anti-diuretic hormone (ADH, arginine-vasopressin) (UniProt P01185 20-28)
# T1 chain: CYFQNCPRG
# Biological target: T1, anti-diuretic hormone (ADH, …)
# Test: graphene FET (drain current); 10 ag/mL to 1 pg/mL ADH in PBS; ID 116.26 to 338.64 uA at VG 8 V; sensor LOD 3.55 ag/mL; PBS (or human serum), 10 min incubation per concentration, PBS washes; pH and temperature not stated
binder,measurement,value
"ADH-specific aptamer (ssDNA, 5'-amine) DNA: TCACGTGCATGATAGACGGCGAAGCCGTCGAGTTGCTGTGTGCCGATGCACGTGA",binding result,binds

# Source: PMC7248865, “Ultrasensitive and Highly Selective Graphene-Based Field-Effect Transistor Biosensor for Anti-Diuretic Hormone Detection”
